Laboratory results published in publication PMC10328973 (Nature Communications, 2023).
Changes are numbered by the printed parent chain.

Tests used:
H77 E2E1-I53-50A trimer = molecular target: T1, H77 E2E1-I53-50A trimer (Hepatitis C virus genotype 1a, strain …, UniProt P27958, stabilised); test: ELISA; details: both partners purified
T1 construct: source: HEK293F, co-transfected with furin, purified (Strep-TactinXT, SEC); copies: 3 + 3

[1] = molecular target: T2, AMS3a E2E1-I53-50A trimer (Hepatitis C virus genotype 3a, strain …, stabilised); test: ELISA; details: both partners purified
T2 construct: also called AMS3a E2E1 trimer; source: HEK293F, co-transfected with furin, purified (Strep-TactinXT, SEC); copies: 3 + 3

[2] = molecular target: T3, AMS2b E2E1-I53-50A trimer (Hepatitis C virus genotype 2b, strain …, stabilised); test: ELISA; details: both partners purified
T3 construct: also called AMS2b E2E1 trimer; source: HEK293F, co-transfected with furin, purified (Strep-TactinXT, SEC); copies: 3 + 3

[3] = molecular target: T4, UKNP5.2.1 E2E1-I53-50A trimer (Hepatitis C virus genotype 5, strain …, UniProt A0A0U3TV66, stabilised); test: cell-based or functional assay
[4] = molecular target: T5, UKNP6.1.2 E2E1-I53-50A trimer (Hepatitis C virus genotype 6, strain …, UniProt A0A0U3SJ35, stabilised); test: ELISA; details: both partners purified
T5 construct: also called UKNP6.1.2 E2E1 trimer; source: HEK293F, co-transfected with furin, purified (Strep-TactinXT, SEC); copies: 3 + 3

[5] = molecular target: T4, UKNP5.2.1 E2E1-I53-50A trimer; test: ELISA; details: both partners purified
[6] = molecular target: T6, UKNP4.1.1 E2E1-I53-50A trimer (Hepatitis C virus genotype 4a, strain …, UniProt A0A0U3JDN1, stabilised); test: ELISA; details: both partners purified
T6 construct: also called UKNP4.1.1 E2E1 trimer; source: HEK293F, co-transfected with furin, purified (Strep-TactinXT, SEC); copies: 3 + 3

[7] = molecular target: T7, UKNP6.1.2 E2E1-I53-50A trimer (Hepatitis C virus genotype 6, strain …, UniProt A0A0U3SJ35, stabilised); test: ELISA; details: both partners purified; remark: listed apart in the source
T7 construct: also called UKNP6.1.2 E2E1 trimer; source: HEK293F, co-transfected with furin, purified (Strep-TactinXT, SEC); copies: 3 + 3

[8] = molecular target: T8, UKNP5.2.1 E2E1-I53-50A trimer (Hepatitis C virus genotype 5, strain …, UniProt A0A0U3TV66, stabilised); test: ELISA; details: both partners purified; remark: listed apart in the source
T8 construct: also called UKNP5.2.1 E2E1 trimer; source: HEK293F, co-transfected with furin, purified (Strep-TactinXT, SEC); copies: 3 + 3

[9] = molecular target: T9, AMS3a E2E1-I53-50A trimer (Hepatitis C virus genotype 3a, strain …, stabilised); test: ELISA; details: both partners purified
T9 construct: also called AMS3a E2E1 trimer; source: HEK293F, co-transfected with furin, purified (Strep-TactinXT, SEC); copies: 3 + 3
T9 chain 1: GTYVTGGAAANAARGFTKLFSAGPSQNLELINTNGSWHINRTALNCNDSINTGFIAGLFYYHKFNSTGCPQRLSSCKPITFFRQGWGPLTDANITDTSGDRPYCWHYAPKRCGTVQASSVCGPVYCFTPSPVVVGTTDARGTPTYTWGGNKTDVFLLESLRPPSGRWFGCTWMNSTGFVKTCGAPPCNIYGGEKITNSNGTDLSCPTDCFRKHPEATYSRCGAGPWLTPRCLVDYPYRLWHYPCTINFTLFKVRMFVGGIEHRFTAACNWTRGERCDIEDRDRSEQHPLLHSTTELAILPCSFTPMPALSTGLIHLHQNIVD
T9 chain 2: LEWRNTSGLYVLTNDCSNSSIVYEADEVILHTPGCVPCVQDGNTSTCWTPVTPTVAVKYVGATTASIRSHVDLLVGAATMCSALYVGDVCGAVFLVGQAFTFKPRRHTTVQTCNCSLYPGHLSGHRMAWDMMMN

[10] = molecular target: T10, AMS2b E2E1-I53-50A trimer (Hepatitis C virus genotype 2b, strain …, stabilised); test: ELISA; details: both partners purified
T10 construct: also called AMS2b E2E1 trimer; source: HEK293F, co-transfected with furin, purified (Strep-TactinXT, SEC); copies: 3 + 3
T10 chain 1: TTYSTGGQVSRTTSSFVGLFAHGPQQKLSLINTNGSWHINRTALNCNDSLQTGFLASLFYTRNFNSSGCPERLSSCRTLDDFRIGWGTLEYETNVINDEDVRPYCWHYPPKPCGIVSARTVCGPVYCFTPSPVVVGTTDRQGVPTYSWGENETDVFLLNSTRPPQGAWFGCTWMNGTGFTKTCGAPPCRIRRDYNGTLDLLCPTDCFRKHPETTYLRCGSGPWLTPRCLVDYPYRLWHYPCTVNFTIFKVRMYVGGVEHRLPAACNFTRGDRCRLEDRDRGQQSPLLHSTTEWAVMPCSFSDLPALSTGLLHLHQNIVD
T10 chain 2: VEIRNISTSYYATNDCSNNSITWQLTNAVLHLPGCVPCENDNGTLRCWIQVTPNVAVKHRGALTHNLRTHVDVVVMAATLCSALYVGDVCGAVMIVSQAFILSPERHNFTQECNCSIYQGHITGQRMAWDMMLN

[11] = molecular target: T11, UKNP4.1.1 E2E1-I53-50A trimer (Hepatitis C virus genotype 4a, strain …, UniProt A0A0U3JDN1, stabilised); test: ELISA; details: both partners purified; remark: listed apart in the source
T11 construct: also called UKNP4.1.1 E2E1 trimer; source: HEK293F, co-transfected with furin, purified (Strep-TactinXT, SEC); copies: 3 + 3

B1: HEPC74 (antibody, V domains shown)
VH: QVQLVQSGAEVKKPGSSVKVSCTTSGGTYINYAISWVRQAPGQGLEWVGGMSPISNTPKYAQKFQGRVTITADESTSTTYMELSSLRPEDTAVYYCARDLLKYCGGGNCHSLLVDPWGQGTLVTVSS
VL: DIVMTQSPSTLSASVGDRVTISCRASQSISSWLAWYQQKPGRAPKLLIYKASSLETGVPSRFSGSGSGTEFTLTISSLQPDDFATYYCQHYNTYLFTFGPGTKVDLK
notes: also called mature HEPC74; conventional HEPC74; source: HEK293F, transfected, purified (protein A/G)
0.03 µg/mL: neutralisation of UKNP5.2.1 HCVpp, IC50 [3]
binds: binding result (H77 E2E1-I53-50A trimer) | binding result [1] | binding result [2]

B2: HEPC74 S54L (antibody, V domains shown)
VH: B1 VH with S55L
VL: B1 VL
notes: human IgG1; source: HEK293F, transfected, purified (protein A/G)
binds: binding result [4] | binding result (H77 E2E1-I53-50A trimer) | binding result [1] | binding result [5] | binding result [6] | binding result [2]

B3: HEPC3 (antibody, V domains shown)
VH: QVQLVQSGAEVKKPGSSVKVSCKASGGTLNSYEITWVRQAPGQGLEWMGGITPIFETTYAQKFQGRVTITADESTSTTYMELSSLRPEDTAVYYCARDGVRYCGGGRCYNWFDPWGQGTLVTVSS
VL: DIQMTQSPSSLSASVGDRVTITCRAGQNINNYLNWYQQKPGKAPKVLIYAASNLQSGVPSRFSGSGSGTDFTLTISSLQPEDFATYYCQQSHSTVRTFGQGTKVEIK
notes: also called mature HEPC3; source: HEK293F, transfected, purified (protein A/G)
binds: binding result [4] | binding result (H77 E2E1-I53-50A trimer) | binding result [1] | binding result [5] | binding result [6] | binding result [2]

B4: AR3D (antibody, V domains shown)
VH: LLEQSGAEVKKPGSSVKVSCKASGDTFRSYVITWARQAPGQGLEWMGAIIPFFGTTNLAQKFQGRVTITADESTKTVYMDLSSLRSDDTAVYYCAKAGDLSVGGVLAGGVPHLRHFDPWGQGTLVTVSS
VL: ELTQSPGTLSLSPGERATLSCRAGQTVASNSLAWYQHKPGQAPRLLIYGASIRASGIPDRFSGSGSGTDFTLTISRLEPEDFAVYYCQQYGLSSTFGQGTRLEIK
notes: also called mature AR3D; source: HEK293F, transfected, purified (protein A/G)
binds: binding result [7] | binding result (H77 E2E1-I53-50A trimer) | binding result [8] | binding result [9] | binding result [10] | binding result [11]

B5: AT1209 (antibody, V domains shown)
VH: QVLVQSGAEVKKPGSSVRVSCKASGDTFKTHAISWVRQAPGQGLEWVGGTVRQAPGDGLELLGGFVPILAPANDAQKFQGRVTITADGSTGPVYMDLSTLTSEDTAMYYCVTSLSEPIPRSCRGGRCYSGPFDAFGVWGQ
VL: EIMLTQSPVTLSVSPGERATLSCRASQSIGTNLAWYQKPGQAPRLLIHGASTRATGVPVSFSGSGSGTEFTLTISSLQSEDFAVYYCQQYNNWPLTFGGGTKVEIK
notes: also called mature AT1209; source: HEK293F, transfected, purified (protein A/G)
binds: binding result [4] | binding result (H77 E2E1-I53-50A trimer) | binding result [1] | binding result [5] | binding result [6] | binding result [2]

B6: AR3C (antibody, V domains shown)
VH: VQLLEQSGAEVKKPGSSVKVSCETSGGTFDNYALNWVRQAPGQGLEWIGGVVPLFGTTRNAQKFQGRVTISDDKSTGTGHMELRSLRSEDTAVYYCVRSVTPRYCGGGFCYGEFDYWGQGTLVTVSS
VL: EIELTQSPATLSVSPGERATLSCRASQSVSSNLAWYQQKPGQAPRLLIYGASTRATGIPARFSGSGSGTEFTLTVSRLEPEDSAVYFCQQYYRSPLTFGGGTKVEIK
notes: also called mature AR3C; conventional AR3C; source: HEK293F, transfected, purified (protein A/G)
binds: binding result [4] | binding result (H77 E2E1-I53-50A trimer) | binding result [1] | binding result [5] | binding result [6] | binding result [2]
